B1: pstv-cnt-RB-ssDNA (ssDNA)
DNA: CAGATCAATTCTCTTAGGTTTACCCGCCAATATATCCTGTCAAACACTGATAGTTTTCACAGTAGGGTG

Legend:
[1] = molecular target: T1, dCas9-dVirD2 fusion (dead Cas9, dead VirD2) (Streptococcus pyogenes / Agrobacterium …, UniProt Q99ZW2 SEQ:46-1413+1453-1899); experiment: EMSA; dead VirD2 does not bind RB probe
[2] = molecular target: T2, VirD2-dCas9 fusion (/ Streptococcus pyogenes, UniProt Q99ZW2 SEQ:46-492+510-1877); experiment: EMSA; denaturing gel mobility shift; 10 mM MgCl2
[3] = molecular target: T3, dCas9-VirD2 fusion (Streptococcus pyogenes / Agrobacterium …, UniProt Q99ZW2 SEQ:46-1413+1453-1899); experiment: EMSA; denaturing gel mobility shift; 10 mM MgCl2
[4] = molecular target: T4, Cas9-VirD2 fusion (wild-type SpCas9 to wild-type VirD2) (Streptococcus pyogenes / Agrobacterium …, UniProt Q99ZW2;P06668 Q99ZW2:1-1368,P06668:1-424); experiment: EMSA; different shift pattern; 250 nM each, 10 mM MgCl2; conditions: tags: SpCas9-VirD2 fusion, expressed in E. coli BL21(DE3)
[5] = molecular target: T5, VirD2-Cas9 fusion (wild-type VirD2 to wild-type SpCas9) (/ Streptococcus pyogenes, UniProt P06668;Q99ZW2 P06668:1-424,Q99ZW2:1-1368); experiment: EMSA; denaturing gel mobility shift, Coomassie; 250 nM each, 10 mM MgCl2; conditions: tags: VirD2-SpCas9 fusion, expressed in E. coli BL21(DE3)
[6] = molecular target: T2, VirD2-dCas9 fusion; experiment: covalent binding, anti-biotin western; 10 mM MgCl2, 37 C; conditions: label: 3' biotin
[7] = molecular target: T4, Cas9-VirD2 fusion (wild-type SpCas9 to …); experiment: as above; conditions: tags: SpCas9-VirD2 fusion, expressed in E. coli BL21(DE3); label: 3' biotin
[8] = molecular target: T3, dCas9-VirD2 fusion; experiment: as above; conditions: label: 3' biotin
[9] = molecular target: T5, VirD2-Cas9 fusion (wild-type VirD2 to …); experiment: as above; conditions: tags: VirD2-SpCas9 fusion, expressed in E. coli BL21(DE3); label: 3' biotin
[10] = molecular target: T1, dCas9-dVirD2 fusion (dead Cas9, dead …); experiment: negative control, dead VirD2; anti-biotin western; conditions: label: 3' biotin

Row | Binder | binding result [1] | binding result [2] | binding result [3] | binding result [4] | binding result [5] | binding result [6] | binding result [7] | binding result [8] | binding result [9] | binding result [10]
1 | B1 | no binding | binds | binds | binds | binds |  |  |  |  | 
2 | GTTTACCCGCCAATATATCCTGTCATTTTTTTTTT (ssDNA) [virD2 reporter-B-L] |  |  |  |  |  | binds | binds | binds | binds | no binding
